According to patent US20230167458A1, “FORSKOLIN-INDUCIBLE PROMOTERS AND HYPOXIA-INDUCIBLE PROMOTERS” (ASKLEPIOS BIOPHARMACEUTICAL, INC., priority 2020, published 2023):

B1: RTV-016: synthetic hypoxia-inducible promoter, SEQ ID NO: 82; 6 HRE2 elements spaced by 20 bp and CMV minimal promoter (nucleic acid)
DNA: CTGCACGTAGATGATGCGTAGCTAGTAGTCTGCACGTAGATGATGCGTAGCTAGTAGTCTGCACGTAGATGATGCGTAGCTAGTAGTCTGCACGTAGATGATGCGTAGCTAGTAGTCTGCACGTAGATGATGCGTAGCTAGTAGTCTGCACGTAGTAGTCGTATGCTGATGCGCAGTTAGCGTAGCTGAGGTACCGTCGACGATATCGGATCCAGGTCTATATAAGCAGAGCTCGTTTAGTGAACCGTCAGATCGCCTAGATACGCCATCCACGCTGTTTTGACCTCCATAGAAGATCGCCACC
modifications: Synp-RTV-016
notes: 6 HRE2 elements spaced by 20 bp and CMV minimal promoter
B2: HYBT: synthetic hypoxia-inducible promoter, SEQ ID NO: 84/86; 4 HRE3 elements and YB-TATA minimal promoter (nucleic acid)
DNA: GATCTTTGTATTTAATTAAGACCTTGAGTACGTGCGTCTCTGCACGTATGGCGATTAAGACCTTGAGTACGTGCGTCTCTGCACGTATGGCGATTAAGACCTTGAGTACGTGCGTCTCTGCACGTATGGCGATTAAGACCTTGAGTACGTGCGTCTCTGCACGTATGGCGATTAATCCATATGCTCTAGAGGGTATATAATGGGGGCCACTAGTCTACTACCAGAAAGCTTGGTACCGAGCTCGGATCCAGCCACC
modifications: Synp-HYBT
notes: 4 HRE3 elements and YB-TATA minimal promoter

Experiments:
[1] = system: HEK293-T; assay: Luciferase expression in normoxia vs 24 h hypoxia, transiently transfected HEK293-T; assay type: cell-based, human
Experimental: HEK293-T are seeded at a density of 20%. Once they reached a confluence between 60 and 80%, the media is changed with DMEM (#21885-025—Thermo Scientific) supplemented with 10% FBS (Gibco, 26140). After 3 hours, the cells were transfected by a transfection mix. The transfection mix is prepared by adding DNA ([…] per 6 well plate) and PEI 25 kDA (#23966-1—Polyscience) in a ratio of 1:3 in sterile DPBS (#14190169—ThermoFisher Scientific). After mixing, the transfection mix is incubated at room temperature for 30 minutes and then added directly to the cells. After 16 to 18 h post transfection, the media is changed to DMEM+2% FBS. The transfected DNA was one of the vectors where the promoter constructs (RTV-015, HYBT, RTV-016, HV3C) or a control promoter (CMV-IE) were used to drive luciferase expression and β-galactosidase containing pcDNA6 plasmid. The β-galactosidase containing plasmid was used as internal control for transfection efficiency (Thermofisher, V22020).
(§1) After transfection the cells were incubated for 24 hrs in normoxic conditions (20% oxygen). Induction of the promoters was assessed by using luciferase activity after 24 hrs in normoxia or hypoxia (5% oxygen, 10% carbon dioxide and 85% nitrogen). Hypoxia was achieved by gas displacement in a sealed hypoxia chamber.
Luciferase activity was measured using LARII (Dual Luciferase Reporter 1000 assay system, Promega, E1980).
Media was removed from the cells at the respective time point (0, 3, 5, 24 hrs after induction). The cells were washed once in 300 μl of DPBS. Cells were lysed by adding 100 μl of passive lysis buffer to the cells and incubation with rocking for 15 minutes. The cell debris was pelleted by centrifugation of the plate at max speed in a benchtop centrifuge for 1 min. 10 μl of supernatant was pipetted into white 96-well plate and luminescence measured by addition of 50 μl of LARII substrate.
β-galactosidase activity was measured as per manufacturer's instructions (Mammalian βGalactosidase Assay Kit, 75707/75710, Thermo Scientific) using 25 μl of lysate. 25 μl of lysate was transferred into a microplate well and mixed with 25 μl of β-galactosidase Assay Reagent, equilibrated to room temperature. The mixture was incubated at 37° C. for 30 min and absorbance measured at 405 nm.
Luciferase readouts were normalised to β-galactosidase to produce normalised relative luminometer units (RLUs).

[2] = system: CHO-GSK1SV; assay: Luciferase expression in normoxia vs 24 h hypoxia, transiently transfected CHO-GS suspension cells; assay type: cell-based, chinese hamster; details: transient CHO_GS
Experimental: 40 ml of cells were grown in a 250 ml vented Erlenmeyer flask (Sigma-Aldrich CLS431144) at 37° C., 20% O2, 8% CO2 with agitation at 100 rpm. Cells were seeded as at 300,000 cells/ml.
One day before transfection, the cells were counted using a haemocytometer and split to 500,000 cells/ml.
On the day of transfection, the cells are seeded to 1,000,000 cells/ml in 500 μl of appropriate medium (Thermofisher, CD-CHO 10743029) in a 24 well plate. […] of DNA per well was then added to 10 μl of OptiMem medium (Thermofisher; 11058021) and incubated for 5 minutes at room temperature.
Concurrently, 0.625 μl of Freestyle Max reagent (Thermofisher, 16447100) was made up to 10 μl by addition of OptiMem and incubated for 5 minutes at room temperature. After this incubation, both mixes were added to the same tube and incubated at room temperature for 25-30 minutes. The DNA/Max reagent mix (20 μl/well) was then added directly to the cells and the cells incubated at 37 C, 8% CO2 with agitation at 100 rpm.
The transfected DNA was one of the vectors where the promoter constructs (RTV-015, HYBT, RTV-016, HV3C) or a control promoter (CMV-IE) were used to drive luciferase expression and β-galactosidase containing pcDNA6 plasmid. The β-galactosidase containing plasmid was used as internal control for transfection efficiency (Thermofisher, V22020).
as §1, with “chamber. Luciferase activity was measured as described above.” for “chamber.”

[3] = system: CHO-GSK1SV cell line; assay: SEAP expression and cell number in normoxia vs 24 h hypoxia, stably transfected CHO-GS-KSV1; assay type: cell-based, chinese hamster; details: stably integrated CHO-GSK1SV
Experimental: Cell suspensions of 6×10^5 cells per mL are incubated on an orbital shaker set at 8% CO2, 20% O2, 37° C., 85% relative humidity and 140 rpm overnight. 2.86×10^7 cells were centrifuged at 200 g for 3 minutes. Media is then aspirated and cell pellet resuspended in 2 mL fresh CD-CHO media to obtain a concentration of 1.43×10^7 cells per mL. 700 μL of cell suspension was added to each of two electroporation cuvettes each containing […] of linearised DNA in 100 μL of sterile TE buffer (Thermofisher, 12090015). Each cuvette was electroporated, delivering a single pulse of 300V, […] with resistance to infinity. Immediately after delivery of pulse electroplated cells were transferred to Erlenmeyer 125 mL flask containing 20 mL of CD-CHO media pre-warmed to 37° C. Electroporated cells from two cuvettes are combined into a single 125 mL flask to generate one pool of cells. Cells are cultured on an orbital shaker set at 8% CO2, 20% 02, 37° C., 85% relative humidity and 140 rpm. Cells are transferred to fresh CD-CHO media 24 hours after transfection and cell cultures monitored and given fresh CD-CHO media every 2-4 days. Usually after about 10-14 days cell numbers will be high enough to start passaging. Cells were selected at 14 days and then expanded. Induction was performed once doubling time had returned to approx. 24 hrs. The cells assayed in this example were at passage number 15, 17, 19 and 21.
The transfected DNA was pXC-17.4 expression vector (Lonza Biologics plc) where one of the promoter constructs (RTV-015, HYBT, RTV-016, HV3C) or a control promoter (CMV-IE) have been cloned upstream of the SEAP gene, which had been cloned into the multiple cloning site within the vector expression cassette. Promoters were closed into the pXC-17.4 vector using Gibson assembly. The pXC-17.4 expression vector is designed for making stable cell lines in the CHO-GSK1SV cell line as it contains the […] gene which has been knocked out of the cell line. Therefore, selection of cells in glutamine drop-out medium will select for cells that have stably integrated the plasmid.
Stably transfected CHO-GS cells were seeded at 500,000 cells/ml and allowed to grow for 24 hrs, at this point the cells were counted and placed under hypoxic conditions as previously described. After 24 hrs, the cell numbers and the expression of SEAP was measured.
SEAP Reporter Gene Assay, chemiluminescent (Roche, CAT #11 779 842 001) was used to measured SEAP activity as per manufacturers protocol. All reagents and samples were fully pre-equilibrated at room temperature. Culture supernatant was collected from the stably transfected CHO-GS at the specific time points (0 h and 24 h). The supernatant was diluted 1:4 in dilution buffer and heat treated at 65° C. for 30 minutes. The heat-treated sample was then centrifuged for 30 s at maximum speed. 50 μl of the heat-treated sample was then added to 5 μl of inactivation buffer and incubated for 5 min at room temperature. 50 μl of substrate reagent was then added and incubated for 10 min at room temperature. The signal is then read at 477 nm and compared to a calibration curve. SEAP expression was normalized against cell number to ensure that the increase in activity was not due to increased cell numbers and was true induction. The result of this experiment can be seen in FIG. 16 and FIG. 17.

Row | Molecule | luciferase activity in normoxia [1] | luciferase activity in normoxia [2] | SEAP activity in normoxia [3] | inducibility after 24 hours in hypoxia (rank) [3]
1 | B1 | almost no luciferase activity | almost no luciferase activity | almost no SEAP activity | –
2 | B2 | almost no luciferase activity | almost no luciferase activity | almost no SEAP activity | highest
